Patent publication US20200131274A1 (CRESCENDO BIOLOGICS, published 2020)
Substitutions are numbered along the chain they refer to.

B1: 1.1-6GS-2.1 (bispecific antibody)
chain: EVQLLESGGGLVQPGGSLRLSCAASGFSFSSYAMSWVRQAPGKGLEWVSSIGENDGTTDYADSVKGRFTISRDNSKSMLYLQMNSLRVEDTAVYYCVKDGVHWGQGTLVTVSSGGGGSGGGGSGGGGSGGGGSGGGGSGGGGSEVQLVESGGGVVQPGRSLRLSCAASGFSFSGYGMHWVRQAPGKGLEWVAYISYDGSNKYYADSVKGRFTISRDNSKNTLYLQMNSLRAEDTAVYYCAKDPAWGLRLGESSSYDFDIWGQGTMVTVSS
B2: 1.1-6GS-2.15 (bispecific antibody)
chain: B1 chain with M177L, G198K, S206K
B3: 1.1-6GS-2.17 (bispecific antibody)
chain: B1 chain with G198A, S206N
B4: 1.1-6GS-2.22 (bispecific antibody)
chain: B1 chain with M177T, D205A, S206P, P243A
B5: 1.11-6GS-2.15 (bispecific antibody)
chain: B1 chain with M34L, D55N, G56D, S63N, S77N, M78T, M177L, G198K, S206K
B6: 1.16-6GS-2.15 (bispecific antibody)
chain: B1 chain with M34L, D55N, G56H, S63T, S77N, M78T, M177L, G198K, S206K
B7: 1.18-6GS-2.15 (bispecific antibody)
chain: B1 chain with M34L, D55N, G56A, D62A, S77N, M78T, M177L, G198K, S206K
B8: HiPEG A-2-A-His6 val-cit-PAB-MMAE (VHH)
chain: EVQLVESGGGVVQPGRSLRLSCAASGFSFSGYGMHWVRQAPGKGLEWVAYISYDGSNKYYADSVKGRFTISRDNSKNTLYLQMNSLRAEDTAVYYCAKDPAWGLRLGESSSYDFDIWGQGTMVTVSSGGGGSGGGGSGGGGSGGGGSGGGGSGGGGSEVQLVESGGGVVQPGRSLRLSCAASGFSFSGYGMHWVRQAPGKGLEWVAYISYDGSNKYYADSVKGRFTISRDNSKNTLYLQMNSLRAEDTAVYYCAKDPAWGLRLGESSSYDFDIWGQGTMVTVSSAAAHHHHHH
modifications: HiPEG val-cit-PAB-MMAE attached via the C-terminal His6-tag, DAR 1
B9: HiPEG B-2-B-His6 val-cit-PAB-MMAE (VHH)
chain: EVQLLESGGGLVQPGGSLRLSCAASGFSFSSYAMSWVRQAPGKGLEWVSSIGENDGTTDYADSVKGRFTISRDNSKSMLYLQMNSLRVEDTAVYYCVKDGVHWGQGTLVTVSSGGGGSGGGGSGGGGSGGGGSGGGGSGGGGSEVQLLESGGGLVQPGGSLRLSCAASGFSFSSYAMSWVRQAPGKGLEWVSSIGENDGTTDYADSVKGRFTISRDNSKSMLYLQMNSLRVEDTAVYYCVKDGVHWGQGTLVTVSS
modifications: HiPEG val-cit-PAB-MMAE attached via the C-terminal His6-tag, DAR 0.7
B10: HiPEG C-2-C-His6 val-cit-PAB-MMAE (VHH)
chain: EVQLVESGGGVVQPGRSLRLSCAASGFPLISYGMHWVRQAPGKGLEWVAFMTYDGSNRYYADSVKGRFTISRDNSKNTLYLQMNSLRDEDTALYYCARDRIVGGRVPDAFDIWGQGTMVTVSSGGGGSGGGGSGGGGSGGGGSGGGGSGGGGSEVQLVESGGGVVQPGRSLRLSCAASGFPLISYGMHWVRQAPGKGLEWVAFMTYDGSNRYYADSVKGRFTISRDNSKNTLYLQMNSLRDEDTALYYCARDRIVGGRVPDAFDIWGQGTMVTVSS
modifications: HiPEG val-cit-PAB-MMAE attached via the C-terminal His6-tag, DAR 1
B11: HiPEG A-1-B-His6 val-cit-PAB-MMAE (bispecific antibody)
chain: EVQLVESGGGVVQPGRSLRLSCAASGFSFSGYGMHWVRQAPGKGLEWVAYISYDGSNKYYADSVKGRFTISRDNSKNTLYLQMNSLRAEDTAVYYCAKDPAWGLRLGESSSYDFDIWGQGTMVTVSSGGGGSGGGGSEVQLLESGGGLVQPGGSLRLSCAASGFSFSSYAMSWVRQAPGKGLEWVSSIGENDGTTDYADSVKGRFTISRDNSKSMLYLQMNSLRVEDTAVYYCVKDGVHWGQGTLVTVSS
modifications: HiPEG val-cit-PAB-MMAE attached via the C-terminal His6-tag, DAR 1
B12: HiPEG C-His6 val-cit-PAB-MMAE (VHH)
VHH: EVQLVESGGGVVQPGRSLRLSCAASGFPLISYGMHWVRQAPGKGLEWVAFMTYDGSNRYYADSVKGRFTISRDNSKNTLYLQMNSLRDEDTALYYCARDRIVGGRVPDAFDIWGQGTMVTVSS
modifications: HiPEG val-cit-PAB-MMAE attached via the C-terminal His6-tag, DAR 1
B13: single VH domain antibody 4.1 (VHH)
VHH: QVQLVESGGGVVQPGRSLRLSCVASGFPFISYGMHWVRQAPGKGREWVAVISYDGSNRYYADSVKGRFTISRDNSKNTLYLQMNSLRPEDTAVYYCAKERIFGVLTPDDFDIWGQGTTVTVSS
notes: Human single VH domain antibody (Humabody); purified via the C-terminal His-tag, residues not tied
B14: single VH domain antibody 12.1 (VHH)
VHH: QVQLVESGGGVVQPGRSLRLSCAASGFTFSNFGMHWARQAPGKGLEWVAVISYDGNSKYYADTVKGRFTISRDNSKNTLYLEMNSLRADDTAVYYCAKGLWPPMDVRGQGTTVTVSS
notes: as for B13
B15: single VH domain antibody 10.1 (VHH)
VHH: QVQLVESGGGLVQPGGSLRLSCAASGFTFSSYGMHWVRQAPGKGLEWVAFMSYDGSNKYYVDSVKGRFTISRDNSKNTLYLQMNSLRAEDTAVYYCAKGDYDFWSGYPDYDMDVWGQGTTVTVSS
notes: as for B13
B16: single VH domain antibody 11.1 (VHH)
VHH: EVQLVESGGGLVKPGGSLRLSCAASGFNLISYGMYWVRQAPGKGLEWVAVISYDGSNKNYADSVKGRFTISRDNSKNTLFLQMNSLRVEDTAVYYCAKGGNALYSSGWPDDGFDIRGQGTMVTVSS
notes: as for B13
B17: single VH domain antibody 13.1 (VHH)
VHH: EVQLVESGGGSVQPGGSLRLSCAASGFTFSDYWMTWVRQVPGKGLEWVANIKQDGSEKYYVDSVKGRFTISRDNAKNSLYLQMNSLRAEDTAVYYCARDRGGAVALYHNGMDMGGQGTTVTVSS
notes: as for B13
B18: single VH domain antibody 6.1 (VHH)
VHH: QVQLQESGPGLVKPSQTLSLTCTVSGGSISNSGYYWSWVRQHPGKDLEWIGFIYYNGSIHYNPSLKSRVIISVDTSKNQFSLKMNSVTAADTAVYYCARDGDDYGDYLRGQGTLVTVSS
notes: as for B13
B19: single VH domain antibody 14.1 (VHH)
VHH: EVQLVESGGEVKKPGASVKVSCKASGYTFTSYDINWVRQATGQGLEWMGWMNPNSGNTGYAQKFQGRVTMTRNTSISTAYMELSSLRSEDTAVYYCARGNGPGITGTTDYWGQGTLVTVSS

What follows are binders tested against cynomolgus PSMA, full-length, on CHO cells (cynomolgus, UniProt A0A2K5VNZ0 1-750) (assay: cell-based or functional assay).

Binder | His-ZAP cell killing, cyno PSMA Average EC50
B1 | 0.012 nM
B2 | 0.0086 nM
B3 | 0.011 nM
B4 | 0.0078 nM
B5 | 0.009 nM
B6 | 0.011 nM
B7 | 0.01 nM

The binders below were run against T1, human prostate specific membrane antigen (PSMA), full-length, on cells (human, UniProt Q04609 1-750) (assay: cell-based or functional assay).
T1 sequence (Q04609 whole entry): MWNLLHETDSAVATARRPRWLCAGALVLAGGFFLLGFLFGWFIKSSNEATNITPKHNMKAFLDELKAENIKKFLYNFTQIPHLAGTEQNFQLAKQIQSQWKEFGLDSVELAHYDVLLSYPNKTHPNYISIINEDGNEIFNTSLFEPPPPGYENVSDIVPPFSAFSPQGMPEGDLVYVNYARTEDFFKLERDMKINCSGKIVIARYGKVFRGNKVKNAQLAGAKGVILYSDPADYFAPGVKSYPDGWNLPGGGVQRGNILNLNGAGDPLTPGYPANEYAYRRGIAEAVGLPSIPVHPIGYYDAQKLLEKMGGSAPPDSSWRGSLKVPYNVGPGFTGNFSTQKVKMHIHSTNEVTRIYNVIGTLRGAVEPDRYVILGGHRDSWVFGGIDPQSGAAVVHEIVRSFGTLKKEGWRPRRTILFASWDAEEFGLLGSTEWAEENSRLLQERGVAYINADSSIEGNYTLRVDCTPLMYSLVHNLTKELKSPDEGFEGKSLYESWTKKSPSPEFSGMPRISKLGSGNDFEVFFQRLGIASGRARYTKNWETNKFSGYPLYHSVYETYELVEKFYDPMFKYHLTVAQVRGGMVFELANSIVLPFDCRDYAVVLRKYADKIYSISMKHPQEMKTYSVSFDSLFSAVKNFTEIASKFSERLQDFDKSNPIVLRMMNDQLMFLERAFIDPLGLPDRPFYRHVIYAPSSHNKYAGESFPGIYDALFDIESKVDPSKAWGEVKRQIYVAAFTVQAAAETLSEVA

Binder | IC50 Toxin (nM), DU145 PSMA cells, 48 h | Mean IC50, cytotoxicity on DU145 PSMA cells, 48 h | Mean Max % Cell kill, DU145 PSMA cells, 48 h
B8 | 0.32 nM | 0.32 nM | 57%
B9 | 12.6 nM | 18 nM | 
B10 | 4.54 nM | 4.5 nM | 69%
B11 | 0.67 nM | 0.67 nM | 75%
B12 | 5.21 nM | 5.2 nM | 59%

Molecular target: T1, human prostate specific membrane …
Experiment: cell-based or functional assay
Remark: another data set of the same source

Binder | IC50 (nM), cytotoxicity on DU145 PSMA cells, 72 h | IC50 (toxin) nM, DU145 PSMA cells, 72 h
B8 | 0.19 nM | 0.19 nM
B9 | 21 nM | 14.7 nM

Each binder was assayed against T2, recombinant human PSMA (R&D, cat. no. 4234-ZN) (human, UniProt Q04609 44-750) (assay: Octet RED384 BLI, PSMA on sensor, VH purified from periplasmic extracts).
T2 construct: Bought protein; also called rhPSMA; Recombinant PMSA
T2 sequence (Q04609 44-750 limits assumed): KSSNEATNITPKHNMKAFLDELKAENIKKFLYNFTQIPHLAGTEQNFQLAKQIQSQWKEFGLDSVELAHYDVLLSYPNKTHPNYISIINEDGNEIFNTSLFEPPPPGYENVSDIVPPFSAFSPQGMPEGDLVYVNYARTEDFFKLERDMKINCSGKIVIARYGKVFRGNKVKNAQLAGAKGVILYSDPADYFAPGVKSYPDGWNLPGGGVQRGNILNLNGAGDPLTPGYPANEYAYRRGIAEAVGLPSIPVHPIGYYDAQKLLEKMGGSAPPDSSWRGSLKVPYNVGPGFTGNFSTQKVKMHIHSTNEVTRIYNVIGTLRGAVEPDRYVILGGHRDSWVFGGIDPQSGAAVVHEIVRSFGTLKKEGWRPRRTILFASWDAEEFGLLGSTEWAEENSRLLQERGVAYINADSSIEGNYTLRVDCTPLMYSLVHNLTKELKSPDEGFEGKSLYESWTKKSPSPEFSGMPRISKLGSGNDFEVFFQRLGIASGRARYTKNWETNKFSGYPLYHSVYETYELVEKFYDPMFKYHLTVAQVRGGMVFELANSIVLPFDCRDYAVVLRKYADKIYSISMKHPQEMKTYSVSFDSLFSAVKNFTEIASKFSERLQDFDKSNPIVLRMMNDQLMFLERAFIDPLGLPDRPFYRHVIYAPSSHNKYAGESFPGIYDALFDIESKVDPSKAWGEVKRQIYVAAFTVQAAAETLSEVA

Binder | Kd | koff
B13 | 45 nM | 0.014 s⁻¹
B14 | 3.9 nM | 0.00137 s⁻¹
B15 | 95 nM | 0.00185 s⁻¹
B16 | 26 nM | 0.00149 s⁻¹
B17 | 4.2 nM | 0.0006 s⁻¹
B18 | 16 nM | 0.00365 s⁻¹
B19 | 17 nM | 0.0011 s⁻¹
